From US20220111034A1, “VIRUS COMPOSITIONS” (priority 2019, published 2022)

Columns and labels:
[1] = molecular target: His6-tagged JAM-A (Bio-Connect Life Science), immobilized on NTA-Ni2+ surfaces or biosensors; experiment: AFM dynamic force spectroscopy, Bell-Evans fit, JAM-A model surface
[2] = molecular target: His6-tagged JAM-A (Bio-Connect Life Science), immobilized on NTA-Ni2+ surfaces or biosensors; experiment: single-virus AFM force spectroscopy, virion on tip, His6-JAM-A model surface
[3] = molecular target: human JAM-A expressed on the surface of transduced Lec2 or CHO cells (Lec2-JAM-A, CHO-JAM-A) (human) (UniProt Q9Y624); experiment: FD-based AFM on Lec2-JAM-A cells, after injection of 1 mM Neu5Ac
[4] = molecular target: human JAM-A expressed on the surface of transduced Lec2 or CHO cells (Lec2-JAM-A, CHO-JAM-A) (human) (UniProt Q9Y624); experiment: FD-based AFM on Lec2-JAM-A cells, after injection of 1 mM LSTa
[5] = molecular target: human JAM-A expressed on the surface of transduced Lec2 or CHO cells (Lec2-JAM-A, CHO-JAM-A) (human) (UniProt Q9Y624); experiment: FD-based AFM on Lec2-JAM-A cells, after injection of 1 mM LNnT
[6] = molecular target: human JAM-A expressed on the surface of transduced Lec2 or CHO cells (Lec2-JAM-A, CHO-JAM-A) (human) (UniProt Q9Y624); experiment: FD-based AFM adhesion mapping on living Lec2-JAM-A cells
[7] = molecular target: human JAM-A expressed on the surface of transduced Lec2 or CHO cells (Lec2-JAM-A, CHO-JAM-A) (human) (UniProt Q9Y624); experiment: FD-based AFM on Lec2-JAM-A cells, before injection of 1 mM LSTa
[8] = molecular target: human JAM-A expressed on the surface of transduced Lec2 or CHO cells (Lec2-JAM-A, CHO-JAM-A) (human) (UniProt Q9Y624); experiment: FD-based AFM on Lec2-JAM-A cells, before injection of 1 mM Neu5Ac
[9] = molecular target: human JAM-A expressed on the surface of transduced Lec2 or CHO cells (Lec2-JAM-A, CHO-JAM-A) (human) (UniProt Q9Y624); experiment: FD-based AFM on Lec2-JAM-A cells, before injection of 1 mM LNnT
[10] = molecular target: human JAM-A expressed on the surface of transduced Lec2 or CHO cells (Lec2-JAM-A, CHO-JAM-A) (human) (UniProt Q9Y624); experiment: FD-based AFM on neuraminidase-treated Lec2-JAM-A cells after injection of Neu5Ac, against before injection
[11] = molecular target: His6-tagged JAM-A (Bio-Connect Life Science), immobilized on NTA-Ni2+ surfaces or biosensors; experiment: AFM force spectroscopy on JAM-A model surface after injection of 1 mM Neu5Ac or LSTa

human JAM-A expressed on the surface of transduced Lec2 or CHO cells (Lec2-JAM-A, CHO-JAM-A) (human), sequence (Q9Y624 28-299): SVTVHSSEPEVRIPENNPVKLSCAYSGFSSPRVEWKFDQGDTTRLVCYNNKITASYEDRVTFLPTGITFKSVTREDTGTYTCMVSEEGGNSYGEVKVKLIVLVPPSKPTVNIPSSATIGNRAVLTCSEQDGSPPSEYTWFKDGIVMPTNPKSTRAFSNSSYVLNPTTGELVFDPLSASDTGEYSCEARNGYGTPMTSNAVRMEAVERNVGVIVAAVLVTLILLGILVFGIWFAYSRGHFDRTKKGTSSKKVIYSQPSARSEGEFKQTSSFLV

Row | Substance | koff [1] | xu (distance to the transition state) [1] | specific binding force [2] | binding frequency [3] | binding frequency [4] | binding frequency [5] | binding force (rupture force) [6] | density of adhesion events (binding frequency) [6] | binding frequency [7] | binding frequency [8] | binding frequency [9] | increase in binding [10] | overall binding force [11] | frequency of adhesion events (binding frequency) [6]
1 | T3SA+ reovirus virion (wild-type strain type 3 Dearing, T3D), binding through its outer-capsid attachment protein sigma-1 (σ1) (from UniProt P03528 1-455) | 0.04 s⁻¹ | 0.71 nm | 20 to 130 pN | 4.9% | 4.8% | 3.9% | 50 to 400 pN | 3.5% | 3.8% | 3.9% | 3.8% | 20% | < 400 pN | 
2 | T3SA- reovirus virion (T3D derivative carrying a point mutation in sigma-1, T3D-σ1R202W) (from UniProt P03528 1-455) | 0.05 s⁻¹ | 0.48 nm | 20 to 130 pN |  |  |  |  |  |  |  |  |  |  | 4%
